Test [1] deals with T1, human NaPi2b on NaPi2b-positive cell lines OVCAR-3 and HCC-78 (human, UniProt O95436 1-690).
T1 sequence: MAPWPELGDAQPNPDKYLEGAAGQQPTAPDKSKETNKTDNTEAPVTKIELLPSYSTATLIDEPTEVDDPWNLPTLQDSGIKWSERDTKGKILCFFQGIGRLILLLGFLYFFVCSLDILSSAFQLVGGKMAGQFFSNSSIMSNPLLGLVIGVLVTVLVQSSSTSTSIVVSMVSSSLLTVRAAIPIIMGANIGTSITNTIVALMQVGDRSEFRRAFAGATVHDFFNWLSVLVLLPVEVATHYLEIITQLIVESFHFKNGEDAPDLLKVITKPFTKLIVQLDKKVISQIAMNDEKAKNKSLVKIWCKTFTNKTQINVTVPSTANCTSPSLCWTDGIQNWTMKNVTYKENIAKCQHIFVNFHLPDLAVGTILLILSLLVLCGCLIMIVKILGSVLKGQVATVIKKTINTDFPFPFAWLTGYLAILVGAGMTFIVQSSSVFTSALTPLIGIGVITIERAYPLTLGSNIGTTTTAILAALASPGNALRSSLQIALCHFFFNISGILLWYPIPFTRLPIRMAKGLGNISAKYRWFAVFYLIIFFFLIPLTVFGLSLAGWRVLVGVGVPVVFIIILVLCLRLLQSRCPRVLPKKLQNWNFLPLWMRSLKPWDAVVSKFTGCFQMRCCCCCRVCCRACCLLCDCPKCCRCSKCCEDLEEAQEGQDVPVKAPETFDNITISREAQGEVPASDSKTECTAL
Description: cell-based or functional assay.

Test [2] has as its target T2, recombinant human FcγRIIa/CD32 H131 (Lumit binding immunoassay) (human, UniProt P12318 34-217, limits assumed).
T2 construct: Kit reagent (Promega), used as an FcγR-SmBiT fusion; also called FcγRIIa/CD32 R131/H131 polymorphism
T2 sequence (looked up): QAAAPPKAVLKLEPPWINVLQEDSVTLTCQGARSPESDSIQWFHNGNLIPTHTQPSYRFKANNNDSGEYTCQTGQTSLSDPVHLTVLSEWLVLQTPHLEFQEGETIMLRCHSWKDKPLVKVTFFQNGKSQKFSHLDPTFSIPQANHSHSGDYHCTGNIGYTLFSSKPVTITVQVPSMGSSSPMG
Description: Lumit FcγRIIa (CD32) (H131) Binding Immunoassay (Promega), competition with Tracer-LgBiT for FcγR-SmBiT, luminescence, n=1; left panel.
Description: Luminescence was measured on a microplate reader Infinite M200 Pro (Tecan).
FcγR interaction studies were performed using the Lumit™ FcγR Binding Immunoassays (FcγRn, FcγRI, FcγRIIa/CD32 R131/H131 polymorphism, FcγRIIIa/CD16 V158/F158 polymorphism; Promega) based on a competition principle and luciferase detection according to the manufacturer's instructions. […] Luminescence is measured on a microplate reader Infinite M200 Pro (Tecan)._Graphs show n=1.

B1: AV25-P5(PEG24)-VC-PAB-Exatecan DAR8 ADC (antibody, human IgG1, kappa, L234A L235A)
heavy: not shown
light: DIQMTQSPSSLSASVGDRVTITCSASQDIGNFLNWYQQKPGKTVKVLIYYASSLYSGVPSRFSGSGSGTDYTLTISSLQPEDFATYYCQQYSKLPLTFGQGTKLELKRTVAAPSVFIFPPSDEQLKSGTASVVCLLNNFYPREAKVQWKVDNALQSGNSQESVTEQDSKDSTYSLSSTLTLSKADYEKHKVYACEVTHQGLSSPVTKSFNRGEC
modifications: P5(PEG24)-VC-PAB-Exatecan linker-payload on the interchain cysteine residue (light chain adduct 1; DAR8 in total); P5(PEG24)-VC-PAB-Exatecan linker-payload on interchain cysteine residues (heavy chain adducts up to 3; DAR8 in total)
notes: also called TUB-040
Consider B1, for which the “cytotoxicity (resazurin assay) on HCC-78, fold lower IC50 against the anti-Napi2b comparison ADC” value in test [1] is 15.5 fold. In test [2], the binding result is “no binding (tested: 250 µg/ml)”.

B2: AV25 mAb (LALA-silenced, AV25 HC-LALA) (antibody, human IgG1, kappa, L234A L235A)
heavy: not shown
light: DIQMTQSPSSLSASVGDRVTITCSASQDIGNFLNWYQQKPGKTVKVLIYYASSLYSGVPSRFSGSGSGTDYTLTISSLQPEDFATYYCQQYSKLPLTFGQGTKLELKRTVAAPSVFIFPPSDEQLKSGTASVVCLLNNFYPREAKVQWKVDNALQSGNSQESVTEQDSKDSTYSLSSTLTLSKADYEKHKVYACEVTHQGLSSPVTKSFNRGEC
notes: IgG1 kappa; also called unmodified AV25 mAb
With B2, the binding result in test [2] is “no binding (tested: 250 µg/ml)”.
